This test addresses T1, GC-A receptors (Homo sapiens, UniProt P16066).
T1 construct: expressed in transfected cells; host or cells: CHO/GC-A cells (Chinese hamster ovary), membrane fraction
T1 sequence (P16066 33-1061): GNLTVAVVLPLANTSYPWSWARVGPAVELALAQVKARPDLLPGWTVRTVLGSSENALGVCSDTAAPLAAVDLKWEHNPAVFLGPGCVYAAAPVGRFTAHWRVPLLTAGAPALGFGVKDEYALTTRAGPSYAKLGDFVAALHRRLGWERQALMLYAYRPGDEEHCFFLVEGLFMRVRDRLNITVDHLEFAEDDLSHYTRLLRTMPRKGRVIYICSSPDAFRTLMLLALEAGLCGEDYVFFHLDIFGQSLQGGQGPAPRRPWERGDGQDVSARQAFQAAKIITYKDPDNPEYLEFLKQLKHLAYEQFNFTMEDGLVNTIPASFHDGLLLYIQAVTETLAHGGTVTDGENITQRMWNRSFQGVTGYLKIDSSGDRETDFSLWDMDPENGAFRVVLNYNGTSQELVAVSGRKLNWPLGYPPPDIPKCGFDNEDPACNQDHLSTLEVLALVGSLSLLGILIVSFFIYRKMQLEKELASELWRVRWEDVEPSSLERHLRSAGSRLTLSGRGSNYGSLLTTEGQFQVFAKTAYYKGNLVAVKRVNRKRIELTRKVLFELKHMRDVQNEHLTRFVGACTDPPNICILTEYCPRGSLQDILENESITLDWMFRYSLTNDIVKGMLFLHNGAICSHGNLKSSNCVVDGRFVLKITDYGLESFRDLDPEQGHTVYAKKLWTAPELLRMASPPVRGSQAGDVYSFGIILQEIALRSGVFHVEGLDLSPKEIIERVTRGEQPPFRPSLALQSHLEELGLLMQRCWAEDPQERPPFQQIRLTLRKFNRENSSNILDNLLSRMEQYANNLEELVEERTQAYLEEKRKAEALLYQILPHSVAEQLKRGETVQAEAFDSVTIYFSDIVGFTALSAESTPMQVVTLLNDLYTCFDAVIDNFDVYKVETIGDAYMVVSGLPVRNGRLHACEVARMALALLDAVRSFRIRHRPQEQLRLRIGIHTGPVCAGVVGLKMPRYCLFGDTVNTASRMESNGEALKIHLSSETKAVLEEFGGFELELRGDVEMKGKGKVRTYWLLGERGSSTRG
In words: Selectivity experiment: peptide mixture bound to GC-A expressed cell membrane fraction, MALDI-TOF-MS. The format is binding. The conditions noted are these: 10 pmol/μl each, CHO/GC-A vs CHO host cell membrane fraction.

Protocol: An albumin-coated membrane fraction (CHO/GC-A cells and CHO host cells) was obtained in the same manner as in Step 1. and Step 2. of Example 1.
The resulting suspension was centrifuged to obtain pellets. The resulting pellets were further washed with 500 μl of distilled water, and centrifugation was performed again to obtain a ligand-bound membrane fraction.
MALDI-TOF-MS measurement was made in the same manner as in Step 4. of Example 1.

As to “angiotensin I (DRVYIHPFHL; Angiotensin-1; UniProt P01019 25-34, looked up)”, the “interaction with GC-A receptors (judgement)” value (“interaction” for short) is on record as “do not interact with GC-A receptors”.
As for melanocyte-stimulating hormone [α-MSH], the “interaction” value is “do not interact with GC-A receptors”.
For the substance substance P, the “interaction” value is given as “do not interact with GC-A receptors”.

The values above are taken from patent US20040235062A1, “Method of analyzing protein occurring in cell or substance interacting with the protein” (priority 2002, published 2004).
